The target of this experiment is GLIC NQN mutant (D91N, E177Q, D178N), pentameric ligand-gated ion channel from Gloeobacter violaceus (Gloeobacter violaceus). In words: crystal structure; GLIC-NQN mutant in 0.01% (w/v) n-tetradecyl-β-D-maltoside, ~10 mg/ml; crystallization conditions as for GLIC and GLIC-ketamine; molecular replacement with 4F8H; five subunits in the asymmetric unit.

The substance “GLIC NQN mutant (D91N, E177Q, D178N), pentameric ligand-gated ion channel from Gloeobacter violaceus (natural protein)” came in with a stoichiometry N of 5.

Source of the values: publication PMC3648548.
